{"source": "paper PMC6495647", "key": {"[1]": {"target": "RecA (UniProt P0A7G6)", "sequence (P0A7G6 whole entry)": "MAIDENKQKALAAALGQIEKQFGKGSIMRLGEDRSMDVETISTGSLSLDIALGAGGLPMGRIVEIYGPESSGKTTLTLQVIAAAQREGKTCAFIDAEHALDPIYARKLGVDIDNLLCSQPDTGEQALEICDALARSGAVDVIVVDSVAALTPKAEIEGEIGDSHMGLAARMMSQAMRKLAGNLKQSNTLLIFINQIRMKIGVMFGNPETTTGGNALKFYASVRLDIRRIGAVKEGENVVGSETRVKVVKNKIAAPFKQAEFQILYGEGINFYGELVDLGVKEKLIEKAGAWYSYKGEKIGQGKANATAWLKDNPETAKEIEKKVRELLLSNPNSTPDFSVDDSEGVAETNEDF", "test": "SPR; another set of experiments; calculated KD for MucB and RecA; details not told"}, "[2]": {"target": "β-subunit of DNA polymerase III holoenzyme of E. coli (E. coli) (UniProt P0A988)", "sequence (P0A988 whole entry)": "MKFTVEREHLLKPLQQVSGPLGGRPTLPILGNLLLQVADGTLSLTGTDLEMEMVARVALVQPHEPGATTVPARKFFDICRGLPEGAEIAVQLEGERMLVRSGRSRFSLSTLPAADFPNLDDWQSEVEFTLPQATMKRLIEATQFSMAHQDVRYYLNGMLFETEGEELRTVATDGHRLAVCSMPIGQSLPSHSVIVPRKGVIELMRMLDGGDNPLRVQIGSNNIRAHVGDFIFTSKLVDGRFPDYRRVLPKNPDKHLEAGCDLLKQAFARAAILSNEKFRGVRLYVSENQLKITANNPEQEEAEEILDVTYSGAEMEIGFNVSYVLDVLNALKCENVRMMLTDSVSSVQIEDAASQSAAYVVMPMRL", "test": "SPR; BIAcore 2000, kinetic analysis at lower ligand densities (577 RU of immobilized β, 1036 RU of immobilized MucA’ on CM5); MucB in the mobile phase; BSA reference cell; apparent constants; data not shown"}, "[3]": {"target": "MucA’ protein (plasmid pKM101 (host species not stated))", "test": "SEC; Superdex 75 XK 16/60, 20 mM HEPES pH 7.4, 10% glycerol, 150 mM NaCl, 0.1 mM EDTA, 1 mM DTT; 1 ml of 2.5 mg/ml MucA’ applied; calibrated with protein standards"}}, "data": [{"substance": "MucB protein (from UniProt P07375 1-420) (enzyme)", "values": [{"measurement": "Kd", "setting": "[1]", "value": 2.41, "unit": "nM"}, {"measurement": "Kd", "setting": "[2]", "value": 0.31, "unit": "nM"}, {"measurement": "amount bound (RU)", "setting": "[2]", "value": 349, "unit": "RU"}, {"measurement": "koff", "setting": "[2]", "value": "1.2e-05", "unit": "s⁻¹"}, {"measurement": "kon", "setting": "[2]", "value": 38700, "unit": "M⁻¹ s⁻¹"}]}, {"substance": "MucA’ protein (natural protein)", "values": [{"measurement": "stoichiometry N", "setting": "[3]", "value": 2}]}]}
